# Test results from article PMC9732051, “Divergent self-association properties of paralogous proteins TRIM2 and TRIM3 regulate their E3 ligase activity” (Nature Communications, 2022).
# Experiments:
# [1] = target: 15N-labelled UBE2D3 (C85S) (UniProt P61077 1-147, mutation of the catalytic cysteine (C85) to serine); assay: NMR; residue K101
# Target sequence in this assay (P61077 whole entry C85S): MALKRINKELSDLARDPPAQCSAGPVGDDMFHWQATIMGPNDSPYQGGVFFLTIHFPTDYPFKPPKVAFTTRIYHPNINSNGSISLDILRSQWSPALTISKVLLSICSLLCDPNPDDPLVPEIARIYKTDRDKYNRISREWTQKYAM
# [2] = target: the molecule itself; assay: SEC-MALLS; Superdex 75 or 200 10/300 GL Increase; 20 mM HEPES pH 7.5, 150 mM NaCl, 0.5 mM TCEP, 3 mM NaN3; 25 °C; 100 μl samples at multiple concentrations (5, 3, 2 and 1 mg/ml in Fig. 1b)
# [3] = target: T1, 15N-labelled UBE2D3 (C85S) (UniProt P61077 1-147, mutation of the catalytic cysteine (C85) to serine); assay: NMR titration; 1H-15N HSQC of 200 µM 15N-UBE2D3 (C85S) titrated with unlabelled RING (0 to 2 molar equivalents); 298 K; 25 mM Na-phosphate pH 7.0, 150 mM NaCl; Kd from fits of chemical shift changes; conditions: both partners purified
# T1 construct: UBE2D3 with the catalytic cysteine (C85) mutated to serine; Uniformly 15N-enriched; source: bacteria grown in M9 minimal medium with 15N-ammonium chloride
# T1 sequence (P61077 whole entry C85S): as above
Kd [3],Binder,stoichiometry N [2],other results
~590 µM,"human TRIM2 RING (2-95) (domain or fragment, UniProt Q9C040 2-95, looked up, human TRIM2, RING construct, residues 2-95; likely on this pET49b construct too; also called T2R; RING1; source: E. coli BL21 (DE3), purified (Ni-NTA, His6 cleaved by HRV 3C, SEC); not shown: His6, N-terminal, cleaved) ASEGTNIPSPVVRQIDKQFLICSICLERYKNPKVLPCLHTFCERCLQNYIPAHSLTLSCPVCRQTSILPEKGVAALQNNFFITNLMDVLQRTPG",2,Kd [1]: 643 µM
,"chimera of the TRIM2 N- and C-terminal α-helices (2-16/84-95) and the TRIM3 core RING (16-82) (other, human, UniProt Q9C040 2-16, looked up, human TRIM2, N-terminal α-helix, residues 2-16; human TRIM3, core RING domain, residues 16-82; human TRIM2, C-terminal α-helix, residues 84-95; also called T2αs-T3Rcore; T2Rαs-T3Rcore; source: E. coli BL21 (DE3), purified (Ni-NTA, His6 cleaved by HRV 3C, SEC); not shown: His6, N-terminal, cleaved) ASEGTNIPSPVVRQIDKQFLVCSICLDRYQCPKVLPCLHTFCERCLQNYIPAQSLTLSCPVCRQTSILPEQGVSALQNNFFITNLMDVLQRTPG",,binding result [2]: binds
,"human TRIM2 RING-B-box2 (2-156) (domain or fragment, UniProt Q9C040 2-156, looked up, human TRIM2, RB2 construct, residues 2-156; also called TRIM2 RB2; source: E. coli BL21 (DE3), purified (Ni-NTA, His6 cleaved by HRV 3C, SEC); not shown: His6, N-terminal, cleaved) ASEGTNIPSPVVRQIDKQFLICSICLERYKNPKVLPCLHTFCERCLQNYIPAHSLTLSCPVCRQTSILPEKGVAALQNNFFITNLMDVLQRTPGSNAEESSILETVTAVAAGKPLSCPNHDGNVMEFYCQSCETAMCRECTEGEHAEHPTVPLKD",2,
,"human TRIM3 tripartite motif RBCC (2-313) (domain or fragment, UniProt O75382 2-313, looked up, human TRIM3, RBCC construct, residues 2-313; also called TRIM3 RBCC; source: E. coli BL21 (DE3), purified (Ni-NTA, His6 cleaved by HRV 3C, SEC); not shown: His6, N-terminal, cleaved) AKREDSPGPEVQPMDKQFLVCSICLDRYQCPKVLPCLHTFCERCLQNYIPAQSLTLSCPVCRQTSILPEQGVSALQNNFFISSLMEAMQQAPDGAHDPEDPHPLSVVAGRPLSCPNHEGKTMEFYCEACETAMCGECRAGEHREHGTVLLRDVVEQHKAALQRQLEAVRGRLPQLSAAIALVGGISQQLQERKAEALAQISAAFEDLEQALQQRKQALVSDLETICGAKQKVLQSQLDTLRQGQEHIGSSCSFAEQALRLGSAPEVLLVRKHMRERLAALAAQAFPERPHENAQLELVLEVDGLRRSVLNLG",2,
,"human TRIM2 tripartite motif RBCC (2-316) (domain or fragment, UniProt Q9C040 2-316, looked up, human TRIM2, RBCC construct, residues 2-316; also called TRIM2 RBCC; source: E. coli BL21 (DE3), purified (Ni-NTA, His6 cleaved by HRV 3C, SEC); not shown: His6, N-terminal, cleaved) ASEGTNIPSPVVRQIDKQFLICSICLERYKNPKVLPCLHTFCERCLQNYIPAHSLTLSCPVCRQTSILPEKGVAALQNNFFITNLMDVLQRTPGSNAEESSILETVTAVAAGKPLSCPNHDGNVMEFYCQSCETAMCRECTEGEHAEHPTVPLKDVVEQHKASLQVQLDAVNKRLPEIDSALQFISEIIHQLTNQKASIVDDIHSTFDELQKTLNVRKSVLLMELEVNYGLKHKVLQSQLDTLLQGQESIKSCSNFTAQALNHGTETEVLLVKKQMSEKLNELADQDFPLHPRENDQLDFIVETEGLKKSIHNLG",4,
~300 µM,"human TRIM3 RING (2-95) (domain or fragment, tripeptide Gly-Pro-Gly left at the N-terminus by 3C protease cleavage; human TRIM3, RING construct, residues 2-95; also called T3R; source: E. coli BL21 (DE3), purified (Ni-NTA, His6 cleaved by HRV 3C, SEC); not shown: His6, N-terminal, cleaved) GPGAKREDSPGPEVQPMDKQFLVCSICLDRYQCPKVLPCLHTFCERCLQNYIPAQSLTLSCPVCRQTSILPEQGVSALQNNFFISSLMEAMQQAPDG",,
